Reference: paper PMC10700433

Tests used:
[1] = biological target: human 4-1BB on activated primary human immune cells (human (endogenous in primary PBMC)) (UniProt Q07011)
[2] = biological target: ATOR-1017 (evunzekibart) (human); assay: BLI; Octet RED96; antibodies captured on FABG2 biosensor tips, recombinant Fcγ receptors in solution at suitable concentration ranges; association and dissociation at physiological pH; details: remark: other sources report otherwise

Sequence of human 4-1BB on activated primary human immune cells (human (endogenous in primary PBMC)) (Q07011 24-255): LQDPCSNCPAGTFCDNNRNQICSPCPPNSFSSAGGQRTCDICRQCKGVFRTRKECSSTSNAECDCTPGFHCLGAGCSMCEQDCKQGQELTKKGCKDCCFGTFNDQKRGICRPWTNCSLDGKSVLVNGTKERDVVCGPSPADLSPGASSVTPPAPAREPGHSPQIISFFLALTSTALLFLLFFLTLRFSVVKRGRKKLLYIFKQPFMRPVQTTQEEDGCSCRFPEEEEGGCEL

B1: ATOR-1017 (evunzekibart) (antibody, V domains shown)
VH: EVQLLESGGGLVQPGGSLRLSCAASGFNFGYSYMSWVRQAPGKGLEWVSSIGSTSSHTYYADSVKGRFTISRDNSKNTLYLQMNSLRAEDTAVYYCARVYSSPGIDYWGQGTLVTVSS
VL: DIQMTQSPSSLSASVGDRVTITCRASQSIGSTLNWYQQKPGKAPKLLIYGASSLQSGVPSRFSGSGSGTDFTLTISSLQPEDFATYYCQQYYTWVPFTFGQGTKLEIK
B1 was tested, and the IFNγ production by IL-2 pre-stimulated human NK cells co-cultured with FcγRI-CHO cells, serially diluted ATOR-1017 [1] was 0.1 nM and the IFNγ production by anti-CD3-activated human CD8+ T cells co-cultured with FcγRI-CHO cells, 72 h, serially diluted ATOR-1017 [1] was 0.2 nM.

B2: human FcγRIIb, P31994 43-310 (receptor)
chain: TPAAPPKAVLKLEPQWINVLQEDSVTLTCRGTHSPESDSIQWFHNGNLIPTHTQPSYRFKANNNDSGEYTCQTGQTSLSDPVHLTVLSEWLVLQTPHLEFQEGETIVLRCHSWKDKPLVKVTFFQNGKSKKFSRSDPNFSIPQANHSHSGDYHCTGNIGYTLYSSKPVTITVQAP
modifications: here or on the partner: soluble ectodomain assumed for BLI
Work on B2 yielded a Kd [2] of 800 nM.

B3: human FcγRIIa, P12318 34-317 (receptor)
chain: QAAAPPKAVLKLEPPWINVLQEDSVTLTCQGARSPESDSIQWFHNGNLIPTHTQPSYRFKANNNDSGEYTCQTGQTSLSDPVHLTVLSEWLVLQTPHLEFQEGETIMLRCHSWKDKPLVKVTFFQNGKSQKFSHLDPTFSIPQANHSHSGDYHCTGNIGYTLFSSKPVTITVQVPSMGSSSPMG
modifications: here or on the partner: Soluble extracellular domain by convention (UniProt topology); construct limits not printed. Allotype of the recombinant protein not stated in the excerpt: given as H131 (H167 in precursor numbering);
B3 showed a Kd [2] of 1000 nM.

B4: mouse FcγRI, P26151 25-404 (receptor)
chain: EVVNATKAVITLQPPWVSIFQKENVTLWCEGPHLPGDSSTQWFINGTAVQISTPSYSIPEASFQDSGEYRCQIGSSMPSDPVQLQIHNDWLLLQASRRVLTEGEPLALRCHGWKNKLVYNVVFYRNGKSFQFSSDSEVAILKTNLSHSGIYHCSGTGRHRYTSAGVSITVKELFTTPVLRASVSSPFPEGSLVTLNCETNLLLQRPGLQLHFSFYVGSKILEYRNTSSEYHIARAEREDAGFYWCEVATEDSSVLKRSPELELQVLGPQSSAP
modifications: here or on the partner: soluble ectodomain assumed for BLI
In the case of B4, the Kd [2] is reported as 200 nM.
